Laboratory results from article PMC10393992 (Nature Communications, 2023).

Target: the molecule itself
Assay: SEC; Superdex 75 10/300 GL; 20 mM NaCl, 25 mM HEPES, 0.2 mM 2-mercaptoethanol; size from a calibration curve of marker proteins

B1: His-CIP4-HR1 (domain or fragment, Mus musculus, UniProt Q8CJ53-3 339-425, looked up)
chain: PPEQQRKRLQQQLEERNRELQKEEDQREALKKMKDVYEKTPQMGDPASLEPRIAETLGNIERLKLEVQKYEAWLAEAESRVLSNRGD
notes: CIP4, Mus musculus, HR1, a.a; 339-425; numbers count on: UniProt Q8CJ53-3; also called homology region 1 of CIP4; source: E. coli BL21-CodonPlus (DE3)-RIL, purified (Ni-NTA agarose, dialysis)
For B1, the “stoichiometry N” value was 2.
